Literature values in PMC3086721.

Target: ubiquitin (Homo sapiens) (UniProt P0CG47)

Sequence of E2-25K UBA (P61086 157-200): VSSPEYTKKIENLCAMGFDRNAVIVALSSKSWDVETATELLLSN

## E2-25K UBA (from UniProt P61086)
  Kd: 400 µM
